The values below come from paper PMC9260506, “Identification of Highly Cross-Reactive Mimotopes for a Public T Cell Response in Murine Melanoma” (Frontiers in Immunology, 2022).

Test [1] addresses 7PPG4 TCR, recombinant soluble (mouse) (UniProt P01849). Nature of the test: SPR. Particulars: peptide-MHC.
Test [2] has as its target 7PPG2 TCR, recombinant soluble (mouse) (UniProt P01849). In words: SPR. The settings on record: peptide-MHC.

The Kd is the concentration at which binding is half-saturated. As to “7PPG2-mim6 mimotope () presented by H-2K^b, refolded pMHC (from UniProt P61769 21-119)”, the results for the Kd in test [1] and in test [2] were over 100 µM and 19 µM, respectively.
